Laboratory results published in patent publication US20160144003A1 (Scripps Research, published 2016).
Positions count from the first letter of the chain named. Numbers in names are those of the source.

T1: human GlyRS P234KY mutant (human, UniProt P41250 55-739)
T1 sequence: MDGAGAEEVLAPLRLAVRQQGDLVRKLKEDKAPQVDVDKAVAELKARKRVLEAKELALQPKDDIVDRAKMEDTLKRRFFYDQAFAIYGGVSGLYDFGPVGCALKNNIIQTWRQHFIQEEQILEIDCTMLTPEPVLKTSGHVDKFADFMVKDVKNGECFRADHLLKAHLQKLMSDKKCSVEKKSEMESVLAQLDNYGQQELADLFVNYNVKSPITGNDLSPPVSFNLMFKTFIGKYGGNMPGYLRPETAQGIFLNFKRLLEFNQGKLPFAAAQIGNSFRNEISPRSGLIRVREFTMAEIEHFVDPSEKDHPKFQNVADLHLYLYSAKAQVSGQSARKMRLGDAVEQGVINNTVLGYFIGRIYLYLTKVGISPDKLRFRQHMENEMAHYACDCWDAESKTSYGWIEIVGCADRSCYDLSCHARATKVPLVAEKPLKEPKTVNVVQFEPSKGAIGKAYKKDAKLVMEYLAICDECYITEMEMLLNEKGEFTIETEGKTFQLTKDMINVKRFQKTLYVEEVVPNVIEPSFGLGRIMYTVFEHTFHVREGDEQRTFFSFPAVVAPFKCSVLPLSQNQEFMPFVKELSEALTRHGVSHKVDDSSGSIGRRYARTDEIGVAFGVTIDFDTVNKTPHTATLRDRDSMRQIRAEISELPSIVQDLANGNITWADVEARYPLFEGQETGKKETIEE

B1: recombinant neuropilin-1/Fc extracellular domain chimeric protein (R&D systems) (Fc fusion)
chain: FRSDKCGGTIKIENPGYLTSPGYPHSYHPSEKCEWLIQAPEPYQRIMINFNPHFDLEDRDCKYDYVEVIDGENEGGRLWGKFCGKIAPSPVVSSGPFLFIKFVSDYETHGAGFSIRYEIFKRGPECSQNYTAPTGVIKSPGFPEKYPNSLECTYIIFAPKMSEIILEFESFDLEQDSNPPGGVFCRYDRLEIWDGFPEVGPHIGRYCGQKTPGRIRSSSGILSMVFYTDSAIAKEGFSANYSVLQSSISEDFKCMEALGMESGEIHSDQITASSQYGTNWSVERSRLNYPENGWTPGEDSYREWIQVDLGLLRFVTAVGTQGAISKETKKKYYVKTYRVDISSNGEDWITLKEGNKAIIFQGNTNPTDVVFGVFPKPLITRFVRIKPASWETGISMRFEVYGCKITDYPCSGMLGMVSGLISDSQITASNQGDRNWMPENIRLVTSRTGWALPPSPHPYINEWLQVDLGDEKIVRGVIIQGGKHRENKVFMRKFKIAYSNNGSDWKMIMDDSKRKAKSFEGNNNYDTPELRAFTPLSTRFIRIYPERATHSGLGLRMELLGCEVEVPTAGPTTPNGNPVDECDDDQANCHSGTGDDFQLTGGTTVLATEKPTIIDSTIQSEFPTYGFNCEFGWGSHKTFCHWEHDSHAQLRWRVLTSKTGPIQDHTGDGNFIYSQADENQKGKVARLVSPVVYSQSSAHCMTFWYHMSGSHVGTLRVKLHYQKPEEYDQLVWMVVGHQGDHWKEGRVLLHKSLKLYQVIFEGEIGKGNLGGIAVDDISINNHIPQEDCAKPTDLDKKNTEIKIDETGSTPGYEEGKGDKNISRKPGNVLKTLDPI
B2: wild-type human glycyl-tRNA synthetase (GlyRS) (enzyme)
chain: MDGAGAEEVLAPLRLAVRQQGDLVRKLKEDKAPQVDVDKAVAELKARKRVLEAKELALQPKDDIVDRAKMEDTLKRRFFYDQAFAIYGGVSGLYDFGPVGCALKNNIIQTWRQHFIQEEQILEIDCTMLTPEPVLKTSGHVDKFADFMVKDVKNGECFRADHLLKAHLQKLMSDKKCSVEKKSEMESVLAQLDNYGQQELADLFVNYNVKSPITGNDLSPPVSFNLMFKTFIGPGGNMPGYLRPETAQGIFLNFKRLLEFNQGKLPFAAAQIGNSFRNEISPRSGLIRVREFTMAEIEHFVDPSEKDHPKFQNVADLHLYLYSAKAQVSGQSARKMRLGDAVEQGVINNTVLGYFIGRIYLYLTKVGISPDKLRFRQHMENEMAHYACDCWDAESKTSYGWIEIVGCADRSCYDLSCHARATKVPLVAEKPLKEPKTVNVVQFEPSKGAIGKAYKKDAKLVMEYLAICDECYITEMEMLLNEKGEFTIETEGKTFQLTKDMINVKRFQKTLYVEEVVPNVIEPSFGLGRIMYTVFEHTFHVREGDEQRTFFSFPAVVAPFKCSVLPLSQNQEFMPFVKELSEALTRHGVSHKVDDSSGSIGRRYARTDEIGVAFGVTIDFDTVNKTPHTATLRDRDSMRQIRAEISELPSIVQDLANGNITWADVEARYPLFEGQETGKKETIEE
notes: Used as a GlyRS-His fusion protein in the neuropilin assays; also called WT GlyRS; WT; not shown: His tag
B3: human GlyRS G598A mutant (enzyme)
chain: B2 chain with G598A
notes: Only in the dimerization measurement (sedimentation equilibrium); also called G598A GlyRS; not shown: the tag is not described
B4: human GlyRS L129P mutant (enzyme)
chain: B2 chain with L129P
notes: also called L129P GlyRS; L129P-His; not shown: His tag
B5: human GlyRS G240R mutant (enzyme)
chain: B2 chain with G240R
notes: GlyRS-His fusion protein in the pull-down and cell assays; also called G240R GlyRS; not shown: His tag
B6: human GlyRS S581L mutant (enzyme)
chain: B2 chain with S581L
notes: also called S581L GlyRS; not shown: His tag
B7: human GlyRS G526R mutant (enzyme)
chain: B2 chain with G526R
notes: GlyRS-His fusion protein in the pull-down assay; also called G526R GlyRS; not shown: His tag

Key:
human GlyRS L129P mutant = molecular target: B4; experiment: bio-layer interferometry (Octet RED), NRP1-Fc on Protein G biosensors, global 1:1 fit of five concentrations
Experimental: FIGS. 15A-15C show the binding affinity between various GlyRS polypeptides and neuropilin-1 (NRP-1). In FIG. 15A, the binding between NRP-1 and GlyRS (wild-type (WT), CMT-associated mutant L129P, and CMT-associated mutant P234KY) at 1 μM was compared by bio-layer interferometry in Octet RED system. No binding was detected between NRP-1 and WT GlyRS, but strong binding was detected between NRP-1 and each of the CMT-associated mutants L129P and P234KY.
The binding constants between GlyRS CMT mutants (L129P and P234KY) and Neuropilin-1 (NRP1) were measured using Octet RED (ForteBio, Inc.). Octet RED utilizes bio-layer interferometry (BLI) technology that enables real-time analysis of protein-protein interactions on the surface of a fiber optic biosensor. The protein of interest is firstly immobilized on the biosensor and then exposed to the protein analyte in solution. The binding of two proteins changes the optical properties of the biosensor, leading to a shift in the wavelength of reflected light. This shift in wavelength allows the measurement of the determination of the binding constant.

[1] = molecular target: T1, human GlyRS P234KY mutant; experiment: bio-layer interferometry (Octet RED), NRP1-Fc on Protein G biosensors, global 1:1 fit of three concentrations
[2] = molecular target: the molecule itself; experiment: sedimentation equilibrium AUC, monomer-dimer self-association
Experimental: FIGS. 8A-8F show sedimentation equilibrium analysis of WT and CMT-causing mutant human GlyRS proteins. Three cells containing different concentrations of each protein sample were centrifuged at 9000 rpm (solid curved line), 14000 rpm (mixed-dash curved line), and 19000 rpm (dash curved line). Absorbance data for each cell was collected at 280 nm and 230 nm wavelength. The meniscus (vertical dot-dash line) in each cell was set manually, while the bottom (vertical dash line) was allowed to float. Data within the fit limits (vertical solid lines) was globally fitted to the monomer-dimer self-association model in SEDPHAT. Data beyond approximately 1.5 absorbance was omitted in case of non-linearity of the detection instrumentation. The fits for the 9000, 14000, and 19000 rpm data are represented by the solid, mixed dash, and dash lines respectively.
WT and mutant GlyRSs were cloned and expressed as described (see Xie et al., Acta Crystallogr Sect F Struct Biol Cryst Commun 62:1243-1246, 2006), and purified to more than 99% homogeneity in three steps: nickel affinity, Mono Q and size exclusion chromatography. Sedimentation equilibrium experiments were performed in a Beckman Optima XL-1 analytical ultracentrifuge with integrated optical systems. All protein samples (0.5 μM, 1.25 μM, 2.5 μM) were prepared in DPBS buffer (2.67 mM potassium chloride, 1.47 mM potassium phosphate monobasic, 137.93 mM sodium chloride and 8.06 mM sodium phosphate dibasic, pH 7.2) and purified by size exclusion chromatography immediately prior to centrifugation. The buffer density and viscosity, and the protein partial specific volume were determined by SEDPHAT (see Lebowitz et al., Protein Sci. 11:2067-2079, 2002). Samples (180 μL) in two-channel cells were centrifuged in a Beckman An-60 Ti rotor at speeds of […] at 4° C. Equilibrium was reached after 36 hours for each speed and verified by comparison with a second scan taken every 6 hours. Data was collected at 280 nm and […]. Data sets consisting of 18 curves per protein (3 concentrations, 3 rotor speeds and 2 wavelengths each) were analyzed by global fitting to the monomer-dimer self-association model using the program SEDPHAT (Id.).

[3] = molecular target: T2, GFP-neuropilin (NRP1) fusion protein on transfected cells; experiment: cell counts of confocal images, N2a cells expressing GFP-NRP1 incubated with GlyRS
T2 construct: whole, on cells; also called GFP-NRP1; NRP1-EGFP
Experimental: Confocal microscopy analysis was performed to assess the influence of GlyRS and CMT-associated GlyRS mutants on neuropilin-mediated neurite outgrowth. Mouse neuroblastoma N2a cells were transfected with either control pEGFP or NRP1-EGFP. After 24 hours, the cells were plated onto Fibronectin coated coverslips. Then N2a cells were then incubated with or without 200 nM wild-type GlyRS or CMT-associated GlyRS mutants (L129P, G240R, G526R) at 4° C. for 1 hour. Cells were then washed three times with DPBS buffer and fixed with 4% formaldehyde. The coverslips were mounted with Prolong Gold Antifade Reagent with DAPI (invitrogen) at 25° C. for overnight. Images were then taken using the Bio-Rad (Zeiss) Radiance 2100 Rainbow laser scanning confocal microscope (LSCM).

T2 sequence (O14786 22-923): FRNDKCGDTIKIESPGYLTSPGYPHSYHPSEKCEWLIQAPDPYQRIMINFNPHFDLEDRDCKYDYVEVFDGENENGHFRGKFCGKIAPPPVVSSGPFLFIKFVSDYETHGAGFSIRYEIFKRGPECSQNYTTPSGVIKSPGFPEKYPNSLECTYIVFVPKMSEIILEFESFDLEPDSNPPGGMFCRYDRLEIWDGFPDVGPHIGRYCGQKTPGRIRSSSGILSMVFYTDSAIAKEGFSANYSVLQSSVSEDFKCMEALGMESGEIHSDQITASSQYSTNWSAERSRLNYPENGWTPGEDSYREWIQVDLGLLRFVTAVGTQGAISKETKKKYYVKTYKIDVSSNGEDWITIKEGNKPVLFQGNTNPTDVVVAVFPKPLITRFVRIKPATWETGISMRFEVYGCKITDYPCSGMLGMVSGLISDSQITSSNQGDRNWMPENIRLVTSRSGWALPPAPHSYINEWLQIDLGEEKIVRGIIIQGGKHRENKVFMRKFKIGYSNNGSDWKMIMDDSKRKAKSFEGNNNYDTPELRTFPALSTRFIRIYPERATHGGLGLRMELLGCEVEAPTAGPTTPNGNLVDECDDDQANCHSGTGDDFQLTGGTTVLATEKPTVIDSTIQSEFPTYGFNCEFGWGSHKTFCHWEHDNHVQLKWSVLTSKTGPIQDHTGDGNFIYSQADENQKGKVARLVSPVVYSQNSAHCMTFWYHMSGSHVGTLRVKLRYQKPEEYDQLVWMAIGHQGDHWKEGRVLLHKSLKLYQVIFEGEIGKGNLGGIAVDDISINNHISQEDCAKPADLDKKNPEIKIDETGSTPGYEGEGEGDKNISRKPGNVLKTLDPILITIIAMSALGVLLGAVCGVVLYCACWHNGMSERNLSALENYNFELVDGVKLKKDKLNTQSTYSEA

Binder	Kd (human GlyRS L129P mutant) [nM]	Kd [1] [nM]	Kd [2] [nM]	Cell number % [3] [%]	fold increase in Kd of dimerization relative to WT GlyRS [2] [fold]	fold decrease in Kd of dimerization relative to WT GlyRS [2] [fold]
B1	36.8	162	–	–	–	–
B2	–	–	560	8.6	–	–
B3	–	–	390	–	–	–
B4	–	–	41000	37.7	73	–
B5	–	–	11000	42	20	–
B6	–	–	190	–	–	3 to 4
B7	–	–	–	20.7	–	3 to 4
